Assay results as given in the supplement of paper PMC10567573.

B1: NP_015628.1 (parent)
chain: EQRNSRWNTVLRAVKAKTHHLEP
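Note: lentivirally expressed fusion library, cells FACS-sorted into six equal-sized GFP/DsRed ratio bins, PSI computed from sequencing read fractions per bin weighted by bin number.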

Variants of: B1
Assay: protein stability index of a GFP-peptide fusion (GPS, HEK-293T) (PSI 1-6); higher = more stable
Conditions: c terminus: native
Variant EQRNSRWNTVLIAVKAKTHHLEP [R12I] has a protein stability index of 2.46.
With EQRNSRWNTVLYAVKAKTHHLEP [R12Y] the protein stability index was 2.5.
Variant EQRNSRWNTVLQAVKAKTHHLEP [R12Q] has a protein stability index of 2.71.
In the case of EQRNSRWNTVLVAVKAKTHHLEP [R12V], the protein stability index is reported as 2.47.
In the case of EQRNSRWNTVLCAVKAKTHHLEP [R12C], the protein stability index is reported as 2.74.
In the case of EQRNSRWNTVLFAVKAKTHHLEP [R12F], the protein stability index is reported as 2.41.
For EQRNSRWNTVLAAVKAKTHHLEP [R12A], the protein stability index was 2.77.
In the case of EQRNSRWNTVLGAVKAKTHHLEP [R12G], the protein stability index is reported as 2.78.
Work on EQRNSRWNTVLNAVKAKTHHLEP [R12N] yielded a protein stability index of 3.21.
Work on EQRNSRWNTVLWAVKAKTHHLEP [R12W] yielded a protein stability index of 2.67.
Work on EQRNSRWNTVLLAVKAKTHHLEP [R12L] yielded a protein stability index of 2.76.
EQRNSRWNTVLTAVKAKTHHLEP [R12T] showed a protein stability index of 3.07.
With EQRNSRWNTVLSAVKAKTHHLEP [R12S] the protein stability index was 2.57.
In the case of EQRNSRWNTVLKAVKAKTHHLEP [R12K], the protein stability index is reported as 2.97.
In the case of EQRNSRWNTVLHAVKAKTHHLEP [R12H], the protein stability index is reported as 2.98.
For EQRNSRWNTVLDAVKAKTHHLEP [R12D], the protein stability index was 2.44.
Work on EQRNSRWNTVLPAVKAKTHHLEP [R12P] yielded a protein stability index of 3.05.
In the case of EQRNSRWNTVLEAVKAKTHHLEP [R12E], the protein stability index is reported as 2.79.
Variant EQRNSRWNTVLMAVKAKTHHLEP [R12M] has a protein stability index of 2.8.
For EQRNSRWNTVLRAVKAKTNHLEP [H19N], the protein stability index was 3.56.
Work on EQRNSRWNTVLRAVKAKTDHLEP [H19D] yielded a protein stability index of 3.81.
Variant EQRNSRWNTVLRAVKAKTFHLEP [H19F] has a protein stability index of 3.66.
EQRNSRWNTVLRAVKAKTKHLEP [H19K] gave a protein stability index of 3.57.
In the case of EQRNSRWNTVLRAVKAKTVHLEP [H19V], the protein stability index is reported as 3.31.
With EQRNSRWNTVLRAVKAKTLHLEP [H19L] the protein stability index was 3.43.
Work on EQRNSRWNTVLRAVKAKTAHLEP [H19A] yielded a protein stability index of 3.34.
Work on EQRNSRWNTVLRAVKAKTQHLEP [H19Q] yielded a protein stability index of 3.73.
EQRNSRWNTVLRAVKAKTPHLEP [H19P] showed a protein stability index of 2.65.
Work on EQRNSRWNTVLRAVKAKTGHLEP [H19G] yielded a protein stability index of 3.86.
Work on EQRNSRWNTVLRAVKAKTTHLEP [H19T] yielded a protein stability index of 3.74.
Work on EQRNSRWNTVLRAVKAKTYHLEP [H19Y] yielded a protein stability index of 3.07.
For EQRNSRWNTVLRAVKAKTMHLEP [H19M], the protein stability index was 3.37.
Work on EQRNSRWNTVLRAVKAKTRHLEP [H19R] yielded a protein stability index of 2.96.
With EQRNSRWNTVLRAVKAKTWHLEP [H19W] the protein stability index was 3.54.
Variant EQRNSRWNTVLRAVKAKTIHLEP [H19I] has a protein stability index of 3.44.
Work on EQRNSRWNTVLRAVKAKTEHLEP [H19E] yielded a protein stability index of 3.75.
For EQRNSRWNTVFRAVKAKTHHLEP [L11F], the protein stability index was 3.9.
In the case of EQRNSRWNTVMRAVKAKTHHLEP [L11M], the protein stability index is reported as 3.19.
For EQRNSRWNTVCRAVKAKTHHLEP [L11C], the protein stability index was 2.47.
EQRNSRWNTVARAVKAKTHHLEP [L11A] gave a protein stability index of 3.95.
Variant EQRNSRWNTVRRAVKAKTHHLEP [L11R] has a protein stability index of 5.15.
With EQRNSRWNTVNRAVKAKTHHLEP [L11N] the protein stability index was 4.51.
Variant EQRNSRWNTVDRAVKAKTHHLEP [L11D] has a protein stability index of 4.52.
Variant EQRNSRWNTVWRAVKAKTHHLEP [L11W] has a protein stability index of 3.69.
For EQRNSRWNTVPRAVKAKTHHLEP [L11P], the protein stability index was 5.12.
With EQRNSRWNTVERAVKAKTHHLEP [L11E] the protein stability index was 4.36.
In the case of EQRNSRWNTVYRAVKAKTHHLEP [L11Y], the protein stability index is reported as 3.5.
In the case of EQRNSRWNTVIRAVKAKTHHLEP [L11I], the protein stability index is reported as 2.51.
For EQRNSRWNTVSRAVKAKTHHLEP [L11S], the protein stability index was 4.1.
EQRNSRWNTVQRAVKAKTHHLEP [L11Q] showed a protein stability index of 4.63.
In the case of EQRNSRWNTVTRAVKAKTHHLEP [L11T], the protein stability index is reported as 3.12.
EQRNSRWNTVVRAVKAKTHHLEP [L11V] gave a protein stability index of 2.5.
EQRNSRWNTVGRAVKAKTHHLEP [L11G] showed a protein stability index of 4.32.
With EQRNSRWNTVHRAVKAKTHHLEP [L11H] the protein stability index was 4.49.
In the case of EQRNSRWNTVKRAVKAKTHHLEP [L11K], the protein stability index is reported as 4.86.
With EQRNSRWNTVLRAVKMKTHHLEP [A16M] the protein stability index was 2.9.
In the case of EQRNSRWNTVLRAVKFKTHHLEP [A16F], the protein stability index is reported as 3.02.
EQRNSRWNTVLRAVKNKTHHLEP [A16N] gave a protein stability index of 2.35.
EQRNSRWNTVLRAVKVKTHHLEP [A16V] showed a protein stability index of 2.95.
EQRNSRWNTVLRAVKYKTHHLEP [A16Y] gave a protein stability index of 2.78.
With EQRNSRWNTVLRAVKTKTHHLEP [A16T] the protein stability index was 2.78.
Variant EQRNSRWNTVLRAVKDKTHHLEP [A16D] has a protein stability index of 2.82.
For EQRNSRWNTVLRAVKHKTHHLEP [A16H], the protein stability index was 2.98.
In the case of EQRNSRWNTVLRAVKQKTHHLEP [A16Q], the protein stability index is reported as 2.99.
Work on EQRNSRWNTVLRAVKWKTHHLEP [A16W] yielded a protein stability index of 2.92.
Variant EQRNSRWNTVLRAVKEKTHHLEP [A16E] has a protein stability index of 2.37.
Work on EQRNSRWNTVLRAVKGKTHHLEP [A16G] yielded a protein stability index of 2.77.
In the case of EQRNSRWNTVLRAVKRKTHHLEP [A16R], the protein stability index is reported as 2.77.
Variant EQRNSRWNTVLRAVKPKTHHLEP [A16P] has a protein stability index of 2.78.
Variant EQRNSRWNTVLRAVKIKTHHLEP [A16I] has a protein stability index of 2.73.
For EQRNSRWNTVLRAVKSKTHHLEP [A16S], the protein stability index was 3.24.
Work on EQRNSRWNTVLRAPKAKTHHLEP [V14P] yielded a protein stability index of 2.73.
Work on EQRNSRWNTVLRARKAKTHHLEP [V14R] yielded a protein stability index of 2.96.
EQRNSRWNTVLRAQKAKTHHLEP [V14Q] showed a protein stability index of 2.85.
With EQRNSRWNTVLRACKAKTHHLEP [V14C] the protein stability index was 2.73.
With EQRNSRWNTVLRAGKAKTHHLEP [V14G] the protein stability index was 3.31.
With EQRNSRWNTVLRAMKAKTHHLEP [V14M] the protein stability index was 3.07.
For EQRNSRWNTVLRAIKAKTHHLEP [V14I], the protein stability index was 3.37.
With EQRNSRWNTVLRAWKAKTHHLEP [V14W] the protein stability index was 3.26.
With EQRNSRWNTVLRANKAKTHHLEP [V14N] the protein stability index was 3.1.
Variant EQRNSRWNTVLRAYKAKTHHLEP [V14Y] has a protein stability index of 2.87.
With EQRNSRWNTVLRAHKAKTHHLEP [V14H] the protein stability index was 3.06.
Variant EQRNSRWNTVLRAFKAKTHHLEP [V14F] has a protein stability index of 2.87.
Work on EQRNSRWNTVLRATKAKTHHLEP [V14T] yielded a protein stability index of 2.97.
For EQRNSRWNTVLRAEKAKTHHLEP [V14E], the protein stability index was 2.45.
With EQRNSRWNTVLRAKKAKTHHLEP [V14K] the protein stability index was 3.44.
In the case of EQRNSRWNTVLRAAKAKTHHLEP [V14A], the protein stability index is reported as 3.23.
EQRNSRWNTVLRADKAKTHHLEP [V14D] showed a protein stability index of 2.89.
For EQRNSRWNTVLRASKAKTHHLEP [V14S], the protein stability index was 3.28.
With EQRNSRWNTVLRALKAKTHHLEP [V14L] the protein stability index was 3.05.
Variant EQRNSRWNTVLRAVKAWTHHLEP [K17W] has a protein stability index of 2.62.
With EQRNSRWNTVLRAVKAPTHHLEP [K17P] the protein stability index was 2.96.
In the case of EQRNSRWNTVLRAVKAATHHLEP [K17A], the protein stability index is reported as 2.77.
EQRNSRWNTVLRAVKACTHHLEP [K17C] showed a protein stability index of 2.61.
Work on EQRNSRWNTVLRAVKAETHHLEP [K17E] yielded a protein stability index of 2.77.
EQRNSRWNTVLRAVKANTHHLEP [K17N] showed a protein stability index of 2.69.
For EQRNSRWNTVLRAVKARTHHLEP [K17R], the protein stability index was 3.33.
